The target in the experiment is T1, murine GPRC5D (murine, UniProt Q9JIL6 1-344).
T1 construct: whole, on cells; also called mGPRC5D; mouse GPRC5D
T1 sequence (looked up): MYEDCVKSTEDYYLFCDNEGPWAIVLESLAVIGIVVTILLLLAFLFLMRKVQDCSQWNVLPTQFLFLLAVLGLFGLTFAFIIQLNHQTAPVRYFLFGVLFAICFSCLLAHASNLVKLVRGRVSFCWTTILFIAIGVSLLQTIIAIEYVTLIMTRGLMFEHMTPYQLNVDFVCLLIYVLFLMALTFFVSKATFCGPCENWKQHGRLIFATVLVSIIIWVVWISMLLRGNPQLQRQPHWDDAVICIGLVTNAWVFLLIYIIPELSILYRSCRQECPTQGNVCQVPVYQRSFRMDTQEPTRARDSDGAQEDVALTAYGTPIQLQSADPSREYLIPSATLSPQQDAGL
Briefly: Jurkat Nur77-RFP reporter activation after 1:1 co-culture with K562 cells expressing mGPRC5D (indirect read-out). As for the experimental part: K562 cells were transduced to express human (hGPRC5D), cGPRC5D or mGPRC5D. The Jurkat Nur77-RFP activation reporter line described above was transduced with polynucleotides constructs encoding CARs described in Example 3. […] Reporter cells were also incubated with parental K562 cells as a negative control.

B1: GPRC5D-203 VL/VH - long (anti-GPRC5D CAR: GPRC5D-203 VL/VH scFv, long spacer, CD28 transmembrane domain, 4-1BB and CD3zeta signaling domains) (other)
chain: SSELTQDPAVSVALGQTVRITCQGDSLRSYYASWYQQKPGQAPVLVIYGKNNRPSGIPDRFSGSSSGNTASLTITGAQAEDEADYYCNSRDSSGNPPVVFGGGTKLTVLGSRGGGGSGGGGSGGGGSLEMAQVQLVESGGGLVHPGGSLRLSCAASGFTFRSHSMNWVRQAPGKGLEWVSSISSDSTYTYYADSVKGRFTISRDNAKNSLYLQMNSLRAEDTAVYYCARSGGQWKYYDYWGQGTLVTVSSESKYGPPCPPCPAPPVAGPSVFLFPPKPKDTLMISRTPEVTCVVVDVSQEDPEVQFNWYVDGVEVHNAKTKPREEQFQSTYRVVSVLTVLHQDWLNGKEYKCKVSNKGLPSSIEKTISKAKGQPREPQVYTLPPSQEEMTKNQVSLTCLVKGFYPSDIAVEWESNGQPENNYKTTPPVLDSDGSFFLYSRLTVDKSRWQEGNVFSCSVMHEALHNHYTQKSLSLSLGKMFWVLVVVGGVLACYSLLVTVAFIIFWVKRGRKKLLYIFKQPFMRPVQTTQEEDGCSCRFPEEEEGGCELRVKFSRSADAPAYQQGQNQLYNELNLGRREEYDVLDKRRGRDPEMGGKPRRKNPQEGLYNELQKDKMAEAYSEIGMKGERRRGKGHDGLYQGLSTATKDTYDALHMQALPPR
notes: Chimeric antigen receptor on the surface of Jurkat Nur77-RFP reporter cells or primary T cells; signal peptide left out; In the reporter constructs a T2A-GFP follows the CAR, so T2A residues may remain at the C-terminus
Take B1: the binding result is “no binding”.
